Measured values reported in IntAct's records for PubMed 21152186.

B1: Matrix metalloproteinase-28 (Homo sapiens), Q9H239 (parent)
chain: MVARVGLLLRALQLLLWGHLDAQPAERGGQELRKEAEAFLEKYGYLNEQVPKAPTSTRFSDAIRAFQWVSQLPVSGVLDRATLRQMTRPRCGVTDTNSYAAWAERISDLFARHRTKMRRKKRFAKQGNKWYKQHLSYRLVNWPEHLPEPAVRGAVRAAFQLWSNVSALEFWEAPATGPADIRLTFFQGDHNDGLGNAFDGPGGALAHAFLPRRGEAHFDQDERWSLSRRRGRNLFVVLAHEIGHTLGLTHSPAPRALMAPYYKRLGRDALLSWDDVLAVQSLYGKPLGGSVAVQLPGKLFTDFETWDSYSPQGRRPETQGPKYCHSSFDAITVDRQQQLYIFKGSHFWEVAADGNVSEPRPLQERWVGLPPNIEAAAVSLNDGDFYFFKGGRCWRFRGPKPVWGLPQLCRAGGLPRHPDAALFFPPLRRLILFKGARYYVLARGGLQVEPYYPRSLQDWGGIPEEVSGALPRPDGSIIFFRDDRYWRLDQAKLQATTSGRWATELPWMGCWHANSGSALF

Variants of: B1
Settings: with furin_human FURIN

Row | effect of a mutation on the interaction | Variant
1 | with no effect | R119A;K120A
2 | with no effect | E241A
3 | with no effect | Y43A;G44A
4 | disrupting interaction strength | Y45A;L46A
